Data from patent US20200071412A1 (ROCKEFELLER UNIVERSITY, published 2020).

Experiments:
human FcγRIIb (human) = human FcγRIIb (human) (UniProt P31994); experiment: Fc variant affinity for Fcγ receptor; method not stated
[1] = target: human FcγRIIa-R131 (human) (UniProt P12318); experiment: as above
[2] = target: human FcγRIIa-H131 (human) (UniProt P12318); experiment: as above
human FcγRIIa-H131 [3] = target: T1, human FcγRIIa-H131 (human, UniProt P12318 34-217, limits assumed); experiment: BLI (FORTEBIO Octet), %Rmax; supernatant 5F11-45-V9-DT-sup; receptor hCD32a/FcγRIIa-H131
T1 construct: also called hCD32a/FcγRIIa-H131
T1 sequence (looked up): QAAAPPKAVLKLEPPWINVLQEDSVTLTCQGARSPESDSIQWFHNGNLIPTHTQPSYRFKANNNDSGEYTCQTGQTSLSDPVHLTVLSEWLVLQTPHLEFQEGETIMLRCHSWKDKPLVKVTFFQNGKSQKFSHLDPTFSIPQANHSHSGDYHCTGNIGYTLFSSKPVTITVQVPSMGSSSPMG

human FcγRIIa-H131 [4] = target: T1, human FcγRIIa-H131; experiment: BLI (FORTEBIO Octet), %Rmax; supernatant 12D6-24-V9-DT-sup; receptor hCD32a/FcγRIIa-H131

Chain of human FcγRIIb (human) (P31994 43-217 limits assumed): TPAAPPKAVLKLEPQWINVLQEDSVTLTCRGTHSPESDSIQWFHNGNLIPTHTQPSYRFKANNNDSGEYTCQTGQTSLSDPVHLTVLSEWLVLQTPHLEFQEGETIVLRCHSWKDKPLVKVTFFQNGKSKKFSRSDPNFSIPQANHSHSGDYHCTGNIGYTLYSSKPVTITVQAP

Molecule: Fc sequence variant IgG1f (antibody with human IgG1f constant domain)
- Kd (human FcγRIIb (human)): 3900 nM
- Kd [1]: 850 nM
- Kd [2]: 530 nM

Molecule: Fc sequence variant P238D (antibody)
- Kd (human FcγRIIb (human)): 950 nM

Molecule: Fc sequence variant SE (antibody)
- Kd (human FcγRIIb (human)): 98 nM
- Kd [1]: 22 nM
- Kd [2]: 520 nM

Molecule: Fc sequence variant SELF (antibody)
- Kd [1]: 2 nM

B1: 5F11-45-V9-DT-sup (antibody, human IgG1, kappa)
heavy chain: QVQLVQSGAEVKKPGSSVKVSCKASGYTFTDLSMHWVRQAPGQGLEWMGYITPSSGYTAYNQKFKGKTTLTADKSTSTAYMELSSLRSEDTAVYYCARLILQRGAYWGQGTLVTVSSASTKGPSVFPLAPSSKSTSGGTAALGCLVKDYFPEPVTVSWNSGALTSGVHTFPAVLQSSGLYSLSSVVTVPSSSLGTQTYICNVNHKPSNTKVDKRVEPKSCDKTHTCPPCPAPELLGDDSVFLFPPKPKDTLMISRTPEVTCVVVDVSHETGEVKFNWYVDGVEVHNAKTKPREEQYNSTYRVVSVLTVLHQDWLNGKEYKCKVSNKALPRPIEKTISKAKGQPREPQVYTLPPSREEMTKNQVSLTCLVKGFYPSDIAVEWESNGQPENNYKTTPPVLDSDGSFFLYSKLTVDKSRWQQGNVFSCSVMHEALHNHYTQKSLSLSPG
light chain: DIVLTQSPDSLAVSLGERATINCRASKNVDSYGNSFMHWYQQKPGQPPKLLIYRASNLESGVPDRFSGSGSGTDFTLTISSLQAEDVAVYYCQQSNEDPLTFGQGTKLEIKRTVAAPSVFIFPPSDEQLKSGTASVVCLLNNFYPREAKVQWKVDNALQSGNSQESVTEQDSKDSTYSLSSTLTLSKADYEKHKVYACEVTHQGLSSPVTKSFNRGEC
notes: Tested as a supernatant of antibody producing cells; also called 5F11-45 V9 D270T
- binding result (human FcγRIIa-H131 [3]): no binding (tested: 10 µM)

B2: 12D6-24-V9-DT-sup (antibody)
heavy: QVQLVQSGAEVKKPGASVKVSCKASGYTFTGYNMNWVRQAPGQGLEWMGNIDPYYGNTNYNQKFKGRVTMTTDTSTSTAYMELRSLRSDDTAVYYCARLGLQLYALDYWGQGTTVTVSSASTKGPSVFPLAPSSKSTSGGTAALGCLVKDYFPEPVTVSWNSGALTSGVHTFPAVLQSSGLYSLSSVVTVPSSSLGTQTYICNVNHKPSNTKVDKRVEPKSCDKTHTCPPCPAPELLGDDSVFLFPPKPKDTLMISRTPEVTCVVVDVSHETGEVKFNWYVDGVEVHNAKTKPREEQYNSTYRVVSVLTVLHQDWLNGKEYKCKVSNKALPRPIEKTISKAKGQPREPQVYTLPPSREEMTKNQVSLTCLVKGFYPSDIAVEWESNGQPENNYKTTPPVLDSDGSFFLYSKLTVDKSRWQQGNVFSCSVMHEALHNHYTQKSLSLSPG
light: DIVMTQTPLSLPVTPGEPASISCRSSQSLVHSNANTYLHWYLQKPGQSPQLLIYKLTNRFFGVPDRFSGSGSGTDFTLKISRVEAEDVGVYYCSQSIHVPWTFGGGTKVEIKRTVAAPSVFIFPPSDEQLKSGTASVVCLLNNFYPREAKVQWKVDNALQSGNSQESVTEQDSKDSTYSLSSTLTLSKADYEKHKVYACEVTHQGLSSPVTKSFNRGEC
notes: Tested as a supernatant of antibody producing cells; also called 12D6-24 V9 D270T; copies: 2 + 2
- binding result (human FcγRIIa-H131 [4]): no binding (tested: 10 µM)
